Assay results taken from US6258556, “cDNA and genomic clones encoding human µ opiate receptor and the purified gene product” (The United States of America as represented by the …, dated 2001).
Non-standard residues stand in square brackets, D forms with d. No end group written: not given here. *: point of attachment. NMeF = CN[C@@H](Cc1ccccc1)C(=O)O; NHCH2CH2OH = OCCN*

Legend:
human µ opiate receptor [1] = molecular target: human µ opiate receptor (human); assay: saturation radioligand binding, whole COS cells transfected with pcDNA1hµOR1
Procedure: (§1) COS cells were transfected by electroporation with 20 µg/10^7 cells of plasmid pcDNA1hµOR1, grown for two to three days and tested for opiate receptor expression by radioligand binding as described, except that whole cell suspensions were used. Adenyl cyclase activities were assessed by radioimmunoassay as described. Cells transfected with the pcDNA1 vector alone served as negative controls.

human µ opiate receptor [2] = molecular target: human µ opiate receptor (human); assay: [3H]DAMGO binding to COS cells expressing hµOR1, with against without 50 µM Gpp(NH)p
Procedure: as §1

human µ opiate receptor [3] = molecular target: human µ opiate receptor (human); assay: [3H]DAMGO binding to COS cells expressing hµOR1, with sodium chloride as low as 5 mM; CLM-00019 ties this to DAMGO
Procedure: as §1

human µ opiate receptor [4] = molecular target: human µ opiate receptor (human); assay: displacement of [3H]DAMGO from COS cells expressing hµOR1; 'low affinities of less than 100 nM' is read as weaker than 100 nM
Procedure: as §1

human µ opiate receptor [5] = molecular target: human µ opiate receptor (human); assay: displacement of [3H]DAMGO from COS cells expressing hµOR1; paragraph 40 says 'low affinities', CLM-00014 calls the value a KD
Procedure: as §1

B1: (D-ala^2, N-methyl-phe^4, glyol^5) enkephalin (peptide)
peptide: Y[dA]G[NMeF][NHCH2CH2OH]
modifications: not fully specified (C-terminus); printed as (D-ala^2, N-methyl-phe^4, glyol^5) enkephalin; also: [3H] label in binding assays
Kd (human µ opiate receptor [1]): 1.2 nM | fold reduction of affinity with 50 µM Gpp(NH)p (human µ opiate receptor [2]): > 3 fold | fold reduction of binding affinity with 5 mM sodium chloride (human µ opiate receptor [3]): 2 fold

YXGFX (D-penicillamine at 2 and at 5 (written X)) [DPDPE (D-pen^2, D-pen^5 enkephalin)]
Kd (human µ opiate receptor [4]): > 100 nM

YGGFLRRIRPKLKWDNQ [dynorphin A 1-17]
Kd (human µ opiate receptor [5]): 284 nM
